According to the supplement of paper PMC9233669:
Variants at the floor of the assay were thinned out.

What was measured:
[1] = tested on: biotinyl-Leu-oxazolone; experiment: self-aminoacylation, catalytic enhancement (BLO) (fold over background); higher = more active; k-Seq, kA / k0A0; sequences stand for … in GGGAAUGGAUCCACAUCUACGAAUUC…UUCACUGCAGACUUGACGAAGCUG
Procedure, shortened: (§1)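 Mutagenized RNA pools with a 21-nt variable region (0.43 μM) reacted with each biotinyl-aminoacyl-oxazolone at 2–1250 μM. Reactions ran in 50 μL HEPES/NaCl/KCl/MgCl2/CaCl2 buffer with 5% acetonitrile, pH 6.9–7.0, for 90 minutes at room temperature. Streptavidin-captured RNA was quantified by triplicate qPCR and Illumina sequencing, and per-sequence fraction reacted was fit to a pseudo-first-order model with 1000 bootstraps. Catalytic enhancement is median kA divided by the uncatalyzed rate, the low-activity peak of a bimodal Gaussian fit.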

[2] = tested on: biotinyl-Ile-oxazolone; experiment: self-aminoacylation, catalytic enhancement (BIO) (fold over background); higher = more active; k-Seq, kA / k0A0; sequences stand for … in GGGAAUGGAUCCACAUCUACGAAUUC…UUCACUGCAGACUUGACGAAGCUG
Procedure, shortened: as §1

[3] = tested on: biotinyl-Met-oxazolone; experiment: self-aminoacylation, catalytic enhancement (BMO) (fold over background); higher = more active; k-Seq, kA / k0A0; sequences stand for … in GGGAAUGGAUCCACAUCUACGAAUUC…UUCACUGCAGACUUGACGAAGCUG
Procedure, shortened: as §1

[4] = tested on: biotinyl-Phe-oxazolone; experiment: self-aminoacylation, catalytic enhancement (BFO) (fold over background); higher = more active; k-Seq, kA / k0A0; sequences stand for … in GGGAAUGGAUCCACAUCUACGAAUUC…UUCACUGCAGACUUGACGAAGCUG
Procedure, shortened: as §1

[5] = tested on: biotinyl-Val-oxazolone; experiment: self-aminoacylation, catalytic enhancement (BVO) (fold over background); higher = more active; k-Seq, kA / k0A0; sequences stand for … in GGGAAUGGAUCCACAUCUACGAAUUC…UUCACUGCAGACUUGACGAAGCUG
Procedure, shortened: as §1

[6] = tested on: biotinyl-Trp-oxazolone; experiment: self-aminoacylation, catalytic enhancement (BWO) (fold over background); higher = more active; k-Seq, kA / k0A0; sequences stand for … in GGGAAUGGAUCCACAUCUACGAAUUC…UUCACUGCAGACUUGACGAAGCUG
Procedure, shortened: as §1

Row | Sequence | self-aminoacylation [1] | self-aminoacylation [2] | self-aminoacylation [3] | self-aminoacylation [4] | self-aminoacylation [5] | self-aminoacylation [6]
1 | CCUCACUUCAAGCAAUUGGUC [Fam1B.1 aminoacylation ribozyme variant] | 0.506 | 0.654 | 0.562 | 1.67 | 0.606 | 0.673
2 | CAACUUCCAACAAUCGGUCUG [Fam1A.1 aminoacylation ribozyme variant] | 0.985 | 1.13 | 1.15 | 1.69 | 0.929 | 1.14
3 | AUUACCCUAGUCAUCGGGUGA [Fam2.1 aminoacylation ribozyme variant] | 8.62 | 4.76 | 7.55 | 49.2 | 4.8 | 9.08
4 | AAGUUUCUUAAUAGUCGCAAG [Fam3.1 aminoacylation ribozyme variant] | 1.92 | 1.95 | 1.56 | 3.21 | 1.69 | 1.66
5 | CCACACUUCAAGCUAUCGGUU [Fam1B.1 aminoacylation ribozyme variant] | 1.12 | 1.29 | 1.18 | 0.942 | 1.43 | 0.897
6 | AUUACCCUAGUCAUAGAGUGA [Fam2.1 aminoacylation ribozyme variant] | 7.72 | 4.22 | 7.98 | 32.7 | 3.95 | 9.37
7 | GUUCAUCUAGGUCAUCGGGUG [Fam2.2 aminoacylation ribozyme variant] | 7.61 | 4.19 | 5.79 | 35.3 | 3.72 | 7.23
8 | CUACUACAAACAAUCGGACUG [Fam1A.1 aminoacylation ribozyme variant] | 0.582 | 0.852 | 0.695 | 0.703 | 0.769 | 0.469
9 | CCACACUUCACGCAAUCUGUC [Fam1B.1 aminoacylation ribozyme variant] | 0.447 | 0.481 | 0.472 | 0.436 | 0.678 | 0.464
10 | AUUCACCUAGGUCAUCGGGCA [Fam2.2 aminoacylation ribozyme variant] | 5.57 | 3.5 | 3.67 | 3.27 | 3.24 | 2.81
11 | AUUACCGUGGUAAUCGAGUGA [Fam2.1 aminoacylation ribozyme variant] | 9.2 | 3.63 | 8.54 | 43.2 | 4.18 | 9.95
12 | AAGUUAGCUAAUAGUCGCAAG [Fam3.1 aminoacylation ribozyme variant] | 1.52 | 1.78 | 1.6 | 5.25 | 1.49 | 2.21
13 | CCACACCUCAAGCAAUCGGUC [Fam1B.1 aminoacylation ribozyme variant] | 0.908 | 1.03 | 0.862 | 2.37 | 1.15 | 1.56
14 | AUGCACCUAGGUCAUCGGGAG [Fam2.2 aminoacylation ribozyme variant] | 1.54 | 1.56 | 1.39 | 1.08 | 1.51 | 1.94
15 | CUUCACCUAGGUCAUCGUGUG [Fam2.2 aminoacylation ribozyme variant] | 1.39 | 1.21 | 1.6 | 3.33 | 1.26 | 1.12
16 | AUUCACCUAGGCCAGCGGGUG [Fam2.2 aminoacylation ribozyme variant] | 4.78 | 3.59 | 4.21 | 24.8 | 4.07 | 3.78
17 | AUGUACCUAGGUCAUCGGGUG [Fam2.2 aminoacylation ribozyme variant] | 5.37 | 3.62 | 5.49 | 34 | 3.08 | 5.8
18 | CUACUUCAAACAAUCGGUAUG [Fam1A.1 aminoacylation ribozyme variant] | 0.995 | 0.788 | 0.789 | 21.5 | 0.799 | 10.1
19 | CUACUUCAAACACUCGGUCUC [Fam1A.1 aminoacylation ribozyme variant] | 0.953 | 0.998 | 0.794 | 0.739 | 0.808 | 0.9
20 | AUUCACCUGGGUUAUCGGGUG [Fam2.2 aminoacylation ribozyme variant] | 6.24 | 3.35 | 6.06 | 36.6 | 4 | 5.56
21 | AUUCACCUAGUUCAUCGGGUC [Fam2.2 aminoacylation ribozyme variant] | 0.903 | 0.996 | 0.906 | 0.49 | 1.17 | 0.582
22 | AUUCACCUAAGUCAGCGGGUG [Fam2.2 aminoacylation ribozyme variant] | 5.01 | 3.01 | 3.78 | 25 | 2.88 | 2.8
23 | CCACAGUACAAGCAAUCGGUC [Fam1B.1 aminoacylation ribozyme variant] | 1.03 | 1.17 | 1.27 | 1.77 | 1.24 | 0.861
24 | AUUACCCUGGUCUUCGAGUCA [Fam2.1 aminoacylation ribozyme variant] | 0.903 | 0.953 | 0.844 | 0.638 | 0.873 | 0.688
25 | AUUACCCUGAUCAUCGAGUGU [Fam2.1 aminoacylation ribozyme variant] | 3.28 | 1.81 | 4.23 | 5.33 | 2.24 | 5.04
26 | CUAUUUCAAACAAUCAGUCUG [Fam1A.1 aminoacylation ribozyme variant] | 0.72 | 0.795 | 0.721 | 4.29 | 0.852 | 1.7

Row | Sequence | self-aminoacylation [1] | self-aminoacylation [2] | self-aminoacylation [3] | self-aminoacylation [4] | self-aminoacylation [5] | self-aminoacylation [6]
27 | AUUCACCUAGUUCUUCGGGUG [Fam2.2 aminoacylation ribozyme variant] | 3.31 | 2.2 | 2.71 | 18.1 | 2.43 | 2.9
28 | CUUCUUCAAACAAUCGGUAUG [Fam1A.1 aminoacylation ribozyme variant] | 0.779 | 0.784 | 0.647 | 9.62 | 0.66 | 4.71
29 | CUACUUCAAACCGUCGGUCUG [Fam1A.1 aminoacylation ribozyme variant] | 0.71 | 0.831 | 0.847 | 0.289 | 0.917 | 0.872
30 | ACUACCCUGGUCACCGAGUGA [Fam2.1 aminoacylation ribozyme variant] | 11.2 | 4.67 | 9.06 | 46.5 | 4.77 | 9.34
31 | AUCACCCUGGUCAUCGAGUAA [Fam2.1 aminoacylation ribozyme variant] | 3.44 | 2 | 3.93 | 6.38 | 2.21 | 2.89
32 | AUAACCCUGGUCAACGAGUGA [Fam2.1 aminoacylation ribozyme variant] | 5.91 | 3.32 | 6.45 | 31.1 | 3.33 | 6.89
33 | AAGUUUGCUAAUAGUGGCAAU [Fam3.1 aminoacylation ribozyme variant] | 0.961 | 1.08 | 1.16 | 1.43 | 1.16 | 0.811
34 | AGACUUCAAACAAUCGGUCUG [Fam1A.1 aminoacylation ribozyme variant] | 3.5 | 2.06 | 2.4 | 125 | 1.93 | 48.1
35 | CCACACUUCAAGCACUCGCUC [Fam1B.1 aminoacylation ribozyme variant] | 2.39 | 2.02 | 2.25 | 2.93 | 2.07 | 1.51
36 | AUUACCUUGGUCAUCGAGUCA [Fam2.1 aminoacylation ribozyme variant] | 0.786 | 0.854 | 0.691 | 0.473 | 0.81 | 0.599
37 | ACACACUUCAGGCAAUCGGUC [Fam1B.1 aminoacylation ribozyme variant] | 1.42 | 1.56 | 1.38 | 1.75 | 1.44 | 1.84
38 | CCACACUUCAAGCUAACGGUC [Fam1B.1 aminoacylation ribozyme variant] | 0.444 | 0.568 | 0.532 | 0.79 | 0.78 | 0.546
39 | CUACGUCGAACAAUCGGUCUG [Fam1A.1 aminoacylation ribozyme variant] | 1.83 | 1.7 | 1.91 | 4.04 | 1.93 | 1.3
40 | AUUAACCUGGUCAUCGAGCGA [Fam2.1 aminoacylation ribozyme variant] | 1.68 | 1.79 | 1.88 | 1.01 | 1.5 | 1.37
41 | AUUCACCUAGGUCGUCGAGUG [Fam2.2 aminoacylation ribozyme variant] | 0.851 | 0.661 | 0.743 | 0.746 | 0.878 | 0.529
42 | AUUGCCCUGGUCAGCGAGUGA [Fam2.1 aminoacylation ribozyme variant] | 5.65 | 3.29 | 5.91 | 36.7 | 3.76 | 6.28
43 | CAGUUUGCUAAUAGUCGCACG [Fam3.1 aminoacylation ribozyme variant] | 1.35 | 1.3 | 1.1 | 1.25 | 1.05 | 1.46
44 | CCACACUUCAAGCUACCGGUC [Fam1B.1 aminoacylation ribozyme variant] | 1.2 | 1.23 | 0.931 | 0.832 | 1.3 | 0.946
45 | AUUCAGCUAGGUCAUCGCGUG [Fam2.2 aminoacylation ribozyme variant] | 6.83 | 4.48 | 6.28 | 54.8 | 5.79 | 5.71
46 | AUUACCCUGGUCAUGGAGAGA [Fam2.1 aminoacylation ribozyme variant] | 1.2 | 0.877 | 0.941 | 1.19 | 1.18 | 1.77
47 | CUACUUCAUACAGUCGGUCUG [Fam1A.1 aminoacylation ribozyme variant] | 0.556 | 0.574 | 0.52 | 0.496 | 0.67 | 0.282
48 | AUCACCCUGGUCAUCGAGUGU [Fam2.1 aminoacylation ribozyme variant] | 21.5 | 7.23 | 22.5 | 94.9 | 8.64 | 20.2
49 | AUUAGCCUGGUCAUCGACUGA [Fam2.1 aminoacylation ribozyme variant] | 1.13 | 1.22 | 1.21 | 1.59 | 1.04 | 0.565
50 | CGACACAUCAAGCAAUCGGUC [Fam1B.1 aminoacylation ribozyme variant] | 1.09 | 1.01 | 0.811 | 1.47 | 1.13 | 0.828
51 | AAGUGUGCUAAUAGUCUCAAG [Fam3.1 aminoacylation ribozyme variant] | 1.44 | 1.26 | 1.4 | 8.7 | 1.62 | 2.73
